Test results as given in the DeepSol protein solubility set.

Test: soluble on expression in E. coli; label from the status in PepcDB or PDB records

Sequence | soluble on expression in E. coli
MFTKSCAKATDQNRQELFMDSLLGDFQKMKEKALNQQQERRSKKRELHCKSSEKTKKPNQYAALTHSQVQEVKAKVRTVNDKFHLNAEEKKLWELILLGNQLAQNISSCDLPTDNEDDASLVKLTQIFADETLERTDLTWLNKILKIALYSRGSGFGNCQEKAFFVFALLLHQAQKPESLIHSLRLATFNNHFILIVNEQFLMDPWLNLAFPLSKGNQQLEIGYVFERFGRLVNYFSINQEGQCFTHTVREGGTIERDPSSEKDMANCIHSLLDHRDYFDLSIVSEREIHTNTKRRKYENQEQEVPQPRQETSNQPTETVYTDSSHNTWDNEGAADDFLEHFEQTHPVYNPGFFSFGQDDVGLKPDLPKNLFKF | not soluble
MVNREIVMDYILSCLQDLVENGVEIKPDSDLVNDLGLESIKVMDLLMMLEDRFDISIPINILLDVKTPAQLMETLLPWLENK | not soluble
MGSDKIHHHHHHMSSIYSAPILVFDVNETLLDIDTLTPLFTRLFGDENRLREWFAQLVLYSQTMTLSGLYTPFGELGVGALQMTADIHAVTLTEEDIQEFKQRMSETPAHPDVIPALTKLRDAGFRLVTLTNSAPSTSPTRLEKAGLSEFFEQNFSVDSVRQFKPAPAIYQMVASELSVETSELCLVACHIWDTIGAQAAGCQGAFVTRPYNALLSAPNVPKPDFIASDLITLAEHIINHQSS | not soluble
MSFMPAIVGPIAINSISGGVVNFGDSFYLSPKSSSKSALGSGAGNTGDFLLLNNAVNATNYIDPDVNDQDMVGNGLEHHHHHH | not soluble
MIYRFTIISDEVDDFVREIQIDPEATFLDFHEAILKSVGYTNDQMTSFFICDDDWEKEKEVTLEEMDDNPEMDSWIMKETTISELVEDEKQKLLYVFDYMTERCFFIELSEIITGKDMNGAKCTKKSGDAPPQTVDFEEMAAASGSLDLDENFYGDQDFDMEDFDQEGFDIGGNAGGSYEEEKFLEHHHHHH | soluble
MECPKEIVLLMHSYFDGDLQPEGEQQLKEHLRSCAACAAHFHELKKTVAFLQYAAHVAAPPSFAAKVMEAMPKERKTARLRRFMHRHPLLTAASLFLALTLGSLASSWGERGAFSVSADEHVIIRDHTVIVPKGETVKGDIVVRNGSIRIEGTVDGDVTVIHGKKYMASAGQVTGEVEEINQVFEWIWYNIKERFNRALQSIE | not soluble
MGSSHHHHHHSSGLVPRGSHMSLNILGYDVGGTKISTVVGNDSGEILSNVRMPTVKHLGKKRLIEEMITMGDAALKKAHVEKPDLIGIIFAGPVDRNRGVVIASPNIFGLSNFNIVEPIRDYYRTDTFLENDAQAAAIAERLFGSGRNVDNFVYMTLSTGIGGGIFINGKLYRGAHGMAGEIGHNVIMVNGPTCGCGRRGCLEALAGGKAIARRVIENLRAVRDSDFFSKLRPNEITAEKVFEGKKQGDMFSQLILEETIYYLAVGLVNIINTLDPELVIIGGGISKAGKDLFDPLNDAVKEEFKSMYRPFKIVPGLENGSDLAAISVPLYTEMELHGEGEKQY | soluble
MSLAALDPITPAGGGTWRFPANEPLRLDSGGVIEGLEIAYQTYGQLNADKSNAVLICHALTGDQHVASPHPTTGKPGWWQRLVGPGKPLDPARHFIICSNVIGGCMGSTGPASINPATGKTYGLSFPVITIADMVRAQAMLVSALGVETLFAVVGGSMGGMQVQQWAVDYPERMFSAVVLASASRHSAQNIAFHEVGRQAIMADPDWRGGAYAEHGVRPEKGLAVARMAAHITYLSEPALQRKFGRELQRDGLSWGFDADFQVESYLRHQGSSFVDRFDANSYLYITRAMDYFDIAASHGGVLAKAFTRARNVRFCVLSFSSDWLYPTAENRHLVRALTAAGARAAFAEIESDKGHDAFLLDEPVMDAALEGFLASAERDRGLVEGHHHHHH | soluble
MKAMPIDDPIDGYVAELSRALHGPRRAKRDLIAEVRDGLIDAAEAYQAAGLDRPEAERRAVAEFGTVGEIAPGLQEELAAATGQRLGALLFLSAPRSPGT | not soluble
MAPRDIRPGAEYGDIIEEAIVTCKVFLIVFSETSQISRWVRSELNIGFSSNKPIIPFRIDPTDLKGSMKLMLNDKHWLNAYPNPEEKFSELAAVILDLLQHPAVDTISPPGFQPASNVASADGSNAGAQGLFGKLLNQLFVKRRVKVTSDHAAEIFLNGERKGKLDAYETGNYSVSEDFYQLEVYSCEYGKKVKCEYSGSFSNSSTVIISVDMATAEKQYLMKAKNITSGQINDLGIIFLDEGKFEDAQECFLKAASMGEAAAAYNLGMMYHFGKGVEIDYDVAREYYEEAVKSDYPLALNNLGSIYYNGHGVRKDIAKSFPYFCRAAERGVESAQFTVATMLFYGQGVAVDKAKAKKWFQKAAAQGCKDSQNYLNSWVDDLEHHHHHH | soluble
MNLTHQDFNLFNREIFTFKQLKEQQTSAEIDALKQTYKQHWEKWKALNLAIAQGLPAELGITKPKIESWTNGWNLRSHFWAAYRSEQRQAENACLALLLNKKQFQVYLMFQHYKSEERTGSVVAYNQLLNRLEAWSQTIDCEGYYIWPQEEHELVDHLPLKDYLADEKQRKILEERIGNRSFQIGKLWFATEKLETIEEKSCQALQELAPLYNALSEK | not soluble
MKTQRIIHPNIDIRKFPEVNTDFSMTDISMGDLHANALLFLNILVRQGIIAISPENYAKFAEIYTLPELQADYWGTEAPVFSAENKQERLEEIKKQYNALIAQIKIINTKKLIRLIGDELVDRGVIDYFILKLLQALYDQGADFEILLSNHGIEFVEACELFKENGNKLVAKRLGNIQHGNSFHALQEAIAAGAISNEEVLNIYHQVYKKHLKIISYSLDPDANEIKVFSHAGIGLNHIRGLARKFKVPYSEESAVDLAKTIDAINKKFAEKASSGEIHTLYTHDMMYRGYAGEHLNSTDEVVAATVWGREYGDLIRTSKKFKITFIHGHDSYDPEKVEHVTLNNQLGQFQNNVGDLYLYATNGMRAVPTQYLNPDKKIQGSREKDRPDKPNDYVVKIHHTKPSFFKTSNPKITFPDSYKRIWDSADGDSNITKIKALLKDYTKEDSILGSFWGLIFTLHWGRHHVKSVHQIAQTKYTSVEAILSDLKALKPREGGSLDKRIKFIELQIIAQRCDSPEPQFNLK | not soluble
MDKQHFKLWYFQFRGRAEPIRLLLTCAGVKFEDYQFTMDQWPTIKPTLPGGRVPLLDVTGPDGKLRRYQESMAIARLLARQFKMMGETDEEYYLIERIIGECEDLYREVYTIFRTPQGEKEAKIKEFKENNGPTLLKLVSESLESSGGKHVAGNRITLGDLFLFTTLTHVMETVPGFLEQKFPKLHEFHKSLPTSCSRLSEYLKKRAKTPF | soluble
MSLYDELKNEFKRVLLDRQLTEELAEECATAFTDTTQAGAYSHGINRFPRFIQQLEQGDIVPNAIPTKVLSLGSIEQWDAHQAIGNLTAKKMMDRAIELASQHGVGVIALRNANHWMRGGSYGWQAAEKGYIGICWTNALAVMPPWGAKECRIGTNPLIIAVPTTPITMVDMSCSMYSYGMLEVHRLAGRQTFVDAGFDDEGNLTRDPSIVEKNRRLLPMGFWKGSGLSIVLDMIATLLSNGESTVAVTEDKNDEYCVSQVFIAIEVDRLIDGKSKDEKLNRIMDYVKTAERSDPTQAVRLPGHEFTTILSDNQTNGIPVDERVWAKLKTLEGHHHHHH | not soluble
MNQNLLVTKRDGSTERINLDKIHRVLDWAAEGLHNVSISQVELRSHIQFYDGIKTSDIHETIIKAAADLISRDAPDYQYLAARLAIFHLRKKAYGQFEPPALYDHVVKMVEMGKYDNHLLEDYTEEEFKQMDTFIDHDRDMTFSYAAVKQLEGKYLVQNRVTGEIYESAQFLYILVAACLFSNYPRETRLQYVKRFYDAVSTFKISLPTPIMSGVRTPTRQFSSCVLIECGDSLDSINATSSAIVKYVSQRAGIGINAGRIRALGSPIRGGEAFHTGCIPFYKHFQTAVKSCSQGGVRGGAATLFYPMWHLEVESLLVLKNNRGVEGNRVRHMDYGVQINKLMYTRLLKGEDITLFSPSDVPGLYDAFFADQEEFERLYTKYEKDDSIRKQRVKAVELFSLMMQERASTGRIYIQNVDHCNTHSPFDPAIAPVRQSNLCLEIALPTKPLNDVNDENGEIALCTLSAFNLGAINNLDELEELAILAVRALDALLDYQDYPIPAAKRGAMGRRTLGIGVINFAYYLAKHGKRYSDGSANNLTHKTFEAIQYYLLKASNELAKEQGACPWFNETTYAKGILPIDTYKKDLDTIANEPLHYDWEALRESIKTHGLRNSTLSALMPSETSSQISNATNGIEPPRGYVSIKASKDGILRQVVPDYEHLHDAYELLWEMPGNDGYLQLVGIMQKFIDQSISANTNYDPSRFPSGKVPMQQLLKDLLTAYKFGVKTLYFQNTRDGAEDAQDDLVPSIQDDGCESGACKI | soluble
MSAALVAQQVATLREQGFAVVRNFASPPVRQALRELALQHLAQTVDPVEYEADLKYPGAPSSRLAAGGQTVRRLLDAYGRDQRFRDWATQAAIGAFLRAYFQDTPVLSTVHHNCIMTKHPAFGSLTGWHQDIRYWSFSDDDLVSCWLALGDERADNGGLYFVPGSHTASFMPEQYDARKFFRDDLPQNQEWIGRAVCPELQAGDVVFFHCRTLHAARQNATDTVKLSLVHTYHPASCHPLPGTRSAGSPGVPLPLEHHHHHH | not soluble
MSLNFDSLLLDIDGTLILKGQPLPGAAEALSFARAQGLRLQLLTNTTAKMPEALAQELCQAGIEVVPDEIQTATTACVGYLQQHAQLKCHLLVPDSIRAAFNGILTDDTNPDVVVISDIGEAFDYATLNRCFRMLRGGARLIALQKNLFWFDRDGERLDCGAFIVGLEAAAQVQALVMGKPSPMFFEAALRKLDTCASRTLVVGDDVLTDCAGAKAVGASSLLVRTGKYDLALFDAHRHNVGAVIDGIADFPRWWASGNTADRHDEGHHHHHH | soluble
MDYKMNNLQLEALLNETLSPQLIKDYCPNGLQVEGKVEVKRIVTGVTASMALIEAAIELKADALLVHHGYFWKNEPEAIRGMKGRRIRTLIQNDLNLYAYHLPLDIHPQLGNNAQLAQRLGICVDGGLEGHPQSVAMFGHFLQPLTGEELAHRIGQVLNRTPLHIAPDQADKLIETVGWCTGGGQDYIELAASRGLDAFISGEISERTTYSAREQSIHYFSAGHHATERYGIKALGEWLAENHGFDVTFIDIDNPVLEHHHHHH | soluble
MVVVCASHIQPAIICRFTWLRFLMEIILIRHGKPTSANNPVLNAVDFTKWVRRYNFSDVSTNSRPDSILDEYKSHYIVSSDLERAIHSASIYTGQSPELTSKLYREMEIPRYKFPLRFKAMTWVYINRAFWMLGLKGSFESYRQAKIRAELASDHLVELAREQDKVILFGHGYLNLHIRRSLIKKGWKLNSKSNGFWGISSLEGLEHHHHHH | not soluble
MRPVVHVVGGGPGDPELLTVKGARLLGEARFVLYTGSLFPEGALRELAPKAALLDSKGMTLEEIVLALAEEARKGGGVVRLHSGDPGLYGTLLEEKEALEALGVGVEVVPGVTAAFALAARAGLSLTAPGVAQAVAFTRLGVRTPVPEGQDPKSLARKGLTLAVYLSGMHPRRLSRELLEAGLPGDTPVLYGHKVAQPGEEVGLTDLKGLAHLPARDTTVYLVGEALRAKGVRSLLYDPSFKHRYRR | soluble
MALIEYNPPLEPYLDIIYQDNHLCVVNKPSGLLSVPGNQPQYYDSAMSRVKEKFGFCEPAHRLDMATSGIIVFALSKAADRELKRQFREREPKKHYQAIVWGHLENDYGEVNLPMICDWENRPRQRLDFVLGKRAVTKFEVLARLPNNSTRVKLTPVTGRSHQLRLHMLALGHPILGDKFYSHPQAKVMSPRLCLHAEELTITHPITGETMTFNAKSDFLEHHHHHH | not soluble
MGSDKIHHHHHHMPLQQESARQERKPVILMSMGQQDRNGHAYQVMTHKYMQPVVDISDCIPLLIPTCFGVADIEQYLDMADGVYLSGAASNIDPSLYGQENLTPEKKQDLARDLVDIALIKGAVKRGLPILGICRGMQEMNIAFGGDLYQKVHDEDHLNDHREDPDTPPDVQYGASHSISMVKGSWLHKLLGDTIEVNSLHGQGIKTLGKGLEALALAEDGLVEALHAPYLPQFTLGVQWHPEWKALENPDSIKIFKAFGEACRRRAGSALDLRIDKAS | not soluble
